Common to all, as to assay: EMSA
Conditions in all cases: 25 mM Tris-HCl pH 7.5, 50 mM KCl, 0.5 mM MgCl2, 100 µg/ml BSA, 1 mM DTT, 10% glycerol; 0.1 µM DNA; 37°C, 30 min; 1% agarose gel, ethidium bromide
On the technique in general: A gel shift assay detects complexes by their altered migration in electrophoresis.

Data set [1] deals with MBP-3B2ct (C-terminal DNMT3B2) (human).
Data set [2] deals with MBP-3B3ct (C-terminal DNMT3B3) (human).
Data set [3] relates to MBP-3B2ct (C-terminal DNMT3B2);GST-3B3ct (human;human).
Data set [4] has as its system MBP-3B2ct (C-terminal DNMT3B2);GST-3B2ct (human;human).
The subject of data set [5] is MBP-3B4ct (C-terminal DNMT3B4) (human).

Broadly, the Kd is the free concentration of one partner at which half of the binding sites on the other are occupied at equilibrium, for simple one-to-one binding. For the substance 420 bp DNMT3B PWWP fragment, the Kd is 220 nM in data set [1]; 160 nM in data set [2]; 1500 nM in data set [3]; 400 nM in data set [4]; 2420 nM in data set [5].

The record behind these values is PMC3716610.
